Measured values from paper PMC11245854.

Assays:
[1] = target: human C1, P02745;P02746;P02747; experiment: HS-AFM; conditions: CL domain anchored onto a Ni2+-coated mica surface using the C-terminal hexahistidine tag; count in 10 different scanning areas; parent: est. 150; read off a plot
[2] = target: human C1q, P02745;P02746;P02747; experiment: HS-AFM; conditions: CL domain anchored onto a Ni2+-coated mica surface using the C-terminal hexahistidine tag; count in 10 different scanning areas; parent: est. 88; read off a plot

Row | response [1] [molecules] | response [2] [molecules] | Substance
1 | 160 | 83 | human Cκ domain (from UniProt P01834) K206A
2 | 55 | 19 | human Cκ domain (from UniProt P01834) E194A
